This note sets out measurements from patent US20140234868A1, “USE FOR GLYCOLIPOPROTEIN GINTONIN, ISOLATED AND IDENTIFIED FROM GINSENG, AS A NATURAL MEDICAL-PLANT DERIVED LIGAND” (KONKUK UNIVERSITY INDUSTRIAL COOPERATION CORP., priority 2011, published 2014).

The subject of test [1] is mice. The test is described as follows: Passive avoidance test, scopolamine-caused long-term memory impairment. Type of test: in vivo, mouse. How it is done:
ICR male mice (25-28 g), purchased from Oriental Bio (Seoul, Korea), were bred according to the guideline of the Institutional Animal Care and Use Committee of Konkuk University, and subjected to passive avoidance test to examine memory maintenance impairment and the protection of gintonin against memory impairment according to the method of Yang et al. (Yang et al., Biol Pharm Bull 32, 1710-1715, 2009).
A passive avoidance test was performed in a training chamber which was divided into two compartments (20×20×20 cm in size, each) separated by an automatically moving guillotine door (5×5 cm): one compartment was lighted while the other remained dark where metal rods installed in a lattice pattern on the bottom so as to deliver an electrical foot shock (Gemini Avoidance System, San Diego, USA).
For an acquisition trial, a mouse was first placed in the lighted compartment, facing away from the dark compartment and allowed to explore for 10 sec. After 10 sec, the guillotine door was opened and the mouse was allowed to explore freely. When the mouse entered the dark compartment with all four paws according to its habit, the guillotine door was closed, and a footshock (0.5 mA, 3 sec duration) was delivered. The latency time to enter the dark compartment was recorded (from the time the door was lifted). 120 min before experimentation, gintonin (25, 50, 100 mg/kg, p.o) was administered while tacrine (10 mg/kg, p.o) was used as a positive control. Memory impairment was induced by injecting scopolamine (0.9 mg/kg, i.p.) 30 min after gintonin or tacrine administration (Araujo et al., Prog Neuropsycopharmcol Biol Psychiatry 29, 411-422, 2005). For a negative control, a physiological saline was used.
24 Hours after the learning session, an experiment was performed without injecting gintonin. The mouse was positioned again in the lighted compartment. After 10 sec of acclimation, the latency time to enter the dark compartment was recorded (from the time the door was lifted).

Test [2] relates to HUVECs. The test is described as follows: HUVEC proliferation, BrDU incorporation ELISA. Type of test: cell-based, human. The note with it: gintonin 24 hrs. As to the method: In this Example, gintonin was examined for effect on cell growth. In this regard, HUVECs (human umbilical vein endothelial cells) were cultured with BrDU in the presence of gintonin, and analyzed for relative BrDU content by BrDU assay (Won et al., J Pharmacol Sci 108, 372-379, 2008; Chen et al., Cell Physiol Biochem 22, 307-314, 2008) using a BrDU cell proliferation ELISA kit (Roche, Germany).
Briefly, cells were seeded at a density of 3×10^3 cells/well into 96-well plates one day before treatment with gintonin. After 24 hrs of incubation, the cells were cultured for 6 hrs in a fresh M199 medium supplemented with […]. Again, the medium was changed to a fresh M199 medium supplemented with […], after which the cells were incubated with gintonin for 24 hrs. For an additional 24 hrs, the cells were incubated with a BrDU labeling reagent. After medium was removed, the cells were washed with 10% FBS-supplemented M199, fixed with a fixative, and quantitatively analyzed for relative intracellular BrDU content using an anti-BrDU-peroxidase antibody and a luminometer (Veritas, Turner Biosystems, USA).

B1: gintonin: ginseng-derived glycolipoprotein; structural protein of ginseng major latex-like protein (MLP151) and ribonuclease-like storage proteins; crude gintonin used in tests (protein)
chain 1: MGLTGKLICQTGIKSDGDVFHELFGTRPHHVPNITPANIQGCDLHEGEFGKVGSVVIWNYSIDGNAMIAKEEIVAIDEEDKSVTFKVVEGHLFEEFKSIVFSVHVDTKGEDNLVTWSIDYEKLNESVKDPTSYLDFLLSVTRDIEAHHLPK
chain 2: RSDYPWAMFALRLQWPAGFCEVNNACDTKSLLNTFTIHGLYPYNAKGTPALYCDGTAFDVNSVSDFLAEMHLAWPSHETNTEDIQFWEHEWKKHGRCSEALLKQTDYFRTALAFRKAFDIVGLLNQEGIYPNNDLYRPKMIKEAIKKHLNAVPEIDFTKNENSEYVLTDINVCVNQQATRFVDCPTDDATDDYRLKFVRLPSKMKFADPRTNSII
Consider B1, for which the latency time in test [1] (gintonin 25 mg/kg p.o. + scopolamine 0.9 mg/kg i.p.) amounted to 78.24 ± 7.83 s; in test [1] (gintonin 50 mg/kg p.o. + scopolamine 0.9 mg/kg i.p.), 169.22 ± 12.97 s; in test [1] (gintonin 100 mg/kg p.o. + scopolamine 0.9 mg/kg i.p.), 183.43 ± 10.89 s. Also, the “incorporation of Br-DU into DNA” value in test [2] is “increase the incorporation of Br-DU into the DNA of HUVECs in a concentration-dependent manner”.
